The record followed here is paper PMC9916804.

The first assay deals with gametogenesis essential protein 1 (GEP1), truncation GEP1^192-905, Strep-tagged. The assay is described as follows: pull-down (Strep-Tactin beads), GFP intensity of elution. More on the design: reference not given here. Conditions: co-expression of GEP1-192-905 and GCα-2301-3850; parent: est. 100; read off a plot.
“guanylate cyclase α C-terminal half, GCα^2301-3850, with N-terminal mEGFP E2794A”: the percent of parent was 80%. Same read-out and setting: the value for “guanylate cyclase α C-terminal half, GCα^2301-3850, with N-terminal mEGFP D3598A” was 110%; that for “guanylate cyclase α C-terminal half, GCα^2301-3850, with N-terminal mEGFP N3724W” was 110%; that for “guanylate cyclase α C-terminal half, GCα^2301-3850, with N-terminal mEGFP D3642V” was 100%. Still for that read-out and setting: next, “guanylate cyclase α C-terminal half, GCα^2301-3850, with N-terminal mEGFP S2910W”: 74%.

The target of another assay is gametogenesis essential protein 1 (GEP1), truncation GEP1^192-905, Strep-tagged (Plasmodium yoelii). The assay is described as follows: pull-down; mutants of mEGFP-GCα^2301-3850 with Strep-tagged GEP1^192-905 on Strep-Tactin beads; GFP intensity of the eluates against WT; whether co-expressed or mixed is not stated.
Details: not given
As for “GCα^2301-3850 (GCα-C) Q2755A, mEGFP-tagged (domain or fragment)”, the GFP intensity of the pull-down eluate, percent of WT was 49.2 % of WT.
